Substitutions are numbered along the chain they refer to.
B1: H4H14760P2 (antibody, human IgG4 S228P, kappa, V domains shown)
VH: QVQLVESGGGVVQPGKSLRLSCAASGFTFSNYGIHWVRQAPGKGLEWVAIILYDGSNQHYADSVKGRFTISRDNSKNTLYLQMNNLRAEDTAVYYCARDLDLWSGYYTNGDGMDVWGQGTTVTVSS
VL: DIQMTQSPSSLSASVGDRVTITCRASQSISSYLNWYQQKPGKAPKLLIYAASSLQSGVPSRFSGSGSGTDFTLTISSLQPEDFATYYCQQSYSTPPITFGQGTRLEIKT
notes: Fully human anti-IL-36R antibody
B2: H4H14734P2 (antibody, human IgG4 S228P, kappa, V domains shown)
VH: EVQLVESGGGLVKPGGSLRLSCAASGFIFSNAWMNWVRQAPGKGLAWVGRIKTETDGGTTDYAAPVKGRFTISRDDSKNTLYLQMNSVKTEDTAVYYCTGGYSYGDDSSSWNEGYYYYGMDVWGQGTTVTVSS
VL: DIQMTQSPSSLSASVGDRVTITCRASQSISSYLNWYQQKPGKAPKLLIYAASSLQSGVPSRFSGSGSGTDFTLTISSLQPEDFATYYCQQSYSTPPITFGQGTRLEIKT
notes: Fully human anti-IL-36R antibody; also called H14H14734P2
B3: H4H14757P (antibody, human IgG4 S228P, kappa, V domains shown)
VH: EVQLVESGGGLVQPGRSLRLSCTASGFTFDDYAMHWVRQAPGKGLEWVSGIRWNGGSIGYVDSVKGRFTISRDNAKKSLHLQMNSLKTEDTALYYCAKDIGDILTGFYGEYGMDVWGQGTTVTVSS
VL: DIQMTQSPSSLSASEGDRVTITCRASQSISSYLNWYQQKAGKAPNLLIYAASSLQSGVPSRFSGSGSGTEYTLTISSLQPEDFATYYCQQSYIIPYTFGQGTKLEIKR
notes: as for B1
B4: H4H14758P (antibody, human IgG4 S228P, kappa, V domains shown)
VH: EVQLVESGGGLVQPGRSLRLSCAASGFTFDDYAMHWVRQAPGKGLEWVSSVRWNGGIIGYADSVKGRFTISRDNAKNSLYLQMNSLRPEDTALYYCAKDIGDVLTGYYGEYGMDVWGQGTTVTVSS
VL: B3 VL with E15V, T22A, S30T, S31T, A40P, N45K, E70D, Y71F, I94S
notes: as for B1

Biological target: T1, human IL-36R extracellular domain expressed with a C-terminal mouse IgG2a Fc tag (hIL-36R-mFc) (human; mouse, UniProt Q9HB29 20-337)
T1 construct: not shown: mouse IgG2a Fc, E98-K330
T1 sequence (looked up): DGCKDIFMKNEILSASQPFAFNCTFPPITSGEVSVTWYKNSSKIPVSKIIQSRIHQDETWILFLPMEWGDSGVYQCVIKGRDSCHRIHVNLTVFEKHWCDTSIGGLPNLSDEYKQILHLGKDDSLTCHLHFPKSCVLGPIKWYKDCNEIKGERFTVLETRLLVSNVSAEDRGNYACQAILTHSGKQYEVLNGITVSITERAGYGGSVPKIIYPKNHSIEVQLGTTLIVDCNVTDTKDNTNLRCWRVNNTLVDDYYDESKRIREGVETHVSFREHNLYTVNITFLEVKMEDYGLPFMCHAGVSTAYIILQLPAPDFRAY
Test: SPR Biacore 4000, mAb captured on anti-hFc, 25C
Procedure: (§1) Equilibrium dissociation constants (KD values) for IL-36R binding to purified anti-IL-36R antibodies were determined using a real-time surface plasmon resonance biosensor using a Biacore 4000 instrument. The Biacore sensor surface was first derivatized by amine coupling with a monoclonal mouse anti-human Fc antibody (GE, # BR-1008-39) to capture anti-IL-36R monoclonal antibodies. All binding studies were performed in 0.01 M Hepes pH 7.4, 0.15 M NaCl, 3 mM EDTA, and 0.05% v/v Surfactant Tween-20 (HBS-ET running buffer) at 25° C. and 37° C. Different concentrations of IL-36R reagents, human IL-36R extracellular domain expressed with a C-terminal myc-myc-hexahistidine tag (hIL-36R-MMH), Macaca fascicularis IL-36R extracellular domain expressed with a C-terminal myc-myc-hexahistidine tag (mfIL-36R-MMH: mROR1 signal sequence (M1-A29). Macaca fascicularis IL36R_ecto domain (D20-A336).mycmycHis6), human IL-36R extracellular domain expressed with a C-terminal mouse IgG2a Fc tag (hIL-36R-mFc: mROR1 signal sequence (M1-A29)-human IL36R (D20-Y337)-mouse IgG2aFc (E98-K330)) or an in-line fusion protein of human IL-36R extracellular domain and IL1RAcP extracellular domain expressed with mouse IgG2a Fc tag (hIL-36R-Trap-mFc: mROR1 signal sequence (M1-A29)-human IL36R ecto domain (D20-Y337)-human IL1RacP ecto domain(S21-E359)-mouse IgG2aFc) in HBS-ET running buffer (ranging from 100 nM to 3.7 nM, 3-fold dilutions) were injected over the anti-IL-36R antibody captured surface for 4 minutes at a flow rate of 30 μL/minute and their dissociation in HBS-ET running buffer was monitored for 10 minutes. Kinetic association rate constant (kₐ) and dissociation rate constant (kd) were determined by fitting the real-time sensorgrams to a 1:1 binding model using Scrubber 2.0c curve fitting software. Binding dissociation equilibrium constants (KD) and dissociative half-lives (t_{1/2}) were calculated from the kinetic rate constants as: […]

Binder	100 nM hIL-36R-mFc Bound (RU)	Kd	koff	kon	t1/2
B1	121 RU	0.526 nM	0.000109 s⁻¹	207000 M⁻¹ s⁻¹	106 min
B2	77 RU	1.63 nM	0.000101 s⁻¹	62200 M⁻¹ s⁻¹	114 min
B3	167 RU	0.173 nM	9.97e-05 s⁻¹	575000 M⁻¹ s⁻¹	116 min
B4	161 RU	0.309 nM	0.000163 s⁻¹	526000 M⁻¹ s⁻¹	71 min

Biological target: T2, in-line fusion protein of human IL-36R extracellular domain and IL1RAcP extracellular domain expressed with … (human; mouse, UniProt Q9HB29 20-337; Q9NPH3 21-359, limits assumed)
T2 construct: not shown: mouse IgG2a Fc
T2 sequence (looked up): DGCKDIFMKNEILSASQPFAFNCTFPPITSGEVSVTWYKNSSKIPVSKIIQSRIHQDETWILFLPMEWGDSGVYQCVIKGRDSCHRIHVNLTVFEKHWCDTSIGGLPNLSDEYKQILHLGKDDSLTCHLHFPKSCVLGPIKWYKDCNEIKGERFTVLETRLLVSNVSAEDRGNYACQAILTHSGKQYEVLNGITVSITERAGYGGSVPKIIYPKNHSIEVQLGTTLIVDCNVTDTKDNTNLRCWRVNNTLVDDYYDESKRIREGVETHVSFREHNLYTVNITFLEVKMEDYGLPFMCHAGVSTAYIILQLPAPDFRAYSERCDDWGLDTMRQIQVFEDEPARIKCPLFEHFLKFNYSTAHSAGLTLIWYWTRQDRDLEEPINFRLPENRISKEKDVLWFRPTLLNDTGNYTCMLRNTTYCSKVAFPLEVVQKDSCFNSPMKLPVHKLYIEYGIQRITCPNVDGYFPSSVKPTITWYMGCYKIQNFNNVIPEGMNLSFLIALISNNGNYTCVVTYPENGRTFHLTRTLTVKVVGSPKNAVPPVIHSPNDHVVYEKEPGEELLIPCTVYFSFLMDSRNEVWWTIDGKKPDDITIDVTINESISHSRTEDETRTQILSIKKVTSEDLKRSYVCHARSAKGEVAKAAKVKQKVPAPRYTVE
Test: SPR Biacore 4000, mAb captured on anti-hFc, 25C
Procedure: as §1

Binder	100 nM hIL-36R-Trap-mFc Bound (RU)	Kd	koff	kon	t1/2
B1	134 RU	0.636 nM	0.0001 s⁻¹	158000 M⁻¹ s⁻¹	115 min
B2	85 RU	2.24 nM	0.00011 s⁻¹	48900 M⁻¹ s⁻¹	105 min
B3	202 RU	0.212 nM	0.000103 s⁻¹	485000 M⁻¹ s⁻¹	113 min
B4	197 RU	0.413 nM	0.00018 s⁻¹	436000 M⁻¹ s⁻¹	64 min

Biological target: T1, human IL-36R extracellular domain …
Test: SPR Biacore 4000, mAb captured on anti-hFc, 37C
Procedure: as §1

Binder	100 nM hIL-36R-mFc Bound (RU)	Kd	koff	kon	t1/2
B1	173 RU	1.02 nM	0.000222 s⁻¹	217000 M⁻¹ s⁻¹	52 min
B2	96 RU	2.31 nM	0.000122 s⁻¹	52700 M⁻¹ s⁻¹	95 min
B3	235 RU	0.243 nM	0.00015 s⁻¹	616000 M⁻¹ s⁻¹	77 min
B4	210 RU	0.517 nM	0.000286 s⁻¹	554000 M⁻¹ s⁻¹	40 min

Biological target: T2, in-line fusion protein of human IL-36R …
Test: SPR Biacore 4000, mAb captured on anti-hFc, 37C
Procedure: as §1

Binder	100 nM hIL-36R-Trap-mFc Bound (RU)	Kd	koff	kon	t1/2
B1	195 RU	1.7 nM	0.000283 s⁻¹	166000 M⁻¹ s⁻¹	41 min
B2	99 RU	2.96 nM	0.000143 s⁻¹	48400 M⁻¹ s⁻¹	81 min
B3	281 RU	0.374 nM	0.000196 s⁻¹	523000 M⁻¹ s⁻¹	59 min
B4	251 RU	0.777 nM	0.000363 s⁻¹	468000 M⁻¹ s⁻¹	32 min

Biological target: T3, human IL-36R extracellular domain expressed with a C-terminal myc-myc-hexahistidine tag (hIL-36R-MMH) (human, UniProt Q9HB29 20-337)
T3 construct: also called Human IL-36R-MMH; REGN2105
Test: SPR Biacore T200, mAb captured on anti-hFc, 25C, PBS-T pH 6.0 running buffer
Procedure: (§2) Additional binding experiments were performed to determine the effect of pH on the rate of dissociation of IL-36R bound to purified anti-IL-36R antibodies, which was determined using a real-time surface plasmon resonance biosensor using a Biacore T200 instrument. The Biacore sensor surface was first derivatized by amine coupling with a monoclonal mouse anti-human Fc antibody (GE, # BR-1008-39) to capture anti-IL-36R antibodies. […] Different concentrations of hIL-36R-MMH and mfIL-36R-MMH prepared in PBS-T, pH7.4 buffer (ranging from 100 nM to 11.11 nM, 3-fold dilutions) were injected over the anti-IL-36R antibody captured surface for 4 minutes at a flow rate of 50 μL/minute and their dissociation in two running buffers, PBS-T, pH7.4 and PBS-T, pH 6.0, was monitored for 10 minutes. All of these binding kinetics experiments were performed at 25° C. and 37° C. Kinetic dissociation constant (kd) were determined by fitting the real-time sensorgrams to a 1:1 binding model using Scrubber 2.0c curve fitting software. Binding dissociative half-lives (t_{1/2}) were calculated from kd as: […]

Binder	100 nM Human IL-36R-MMH Bound (RU)	koff	t1/2
B1	69 RU	0.000972 s⁻¹	12 min
B2	18 RU	0.000787 s⁻¹	15 min
B3	98 RU	0.000887 s⁻¹	13 min
B4	103 RU	0.0018 s⁻¹	6 min

Biological target: T3, human IL-36R extracellular domain …
Test: SPR Biacore T200, mAb captured on anti-hFc, 25C, PBS-T pH 7.4 running buffer
Procedure: as §2

Binder	100 nM Human IL-36R-MMH Bound (RU)	koff	t1/2
B1	80 RU	0.000545 s⁻¹	21 min
B2	20 RU	0.000738 s⁻¹	16 min
B3	105 RU	0.000597 s⁻¹	19 min
B4	108 RU	0.00112 s⁻¹	10 min

Biological target: T3, human IL-36R extracellular domain …
Test: SPR Biacore T200, mAb captured on anti-hFc, 37C, PBS-T pH 6.0 running buffer
Procedure: as §2

Binder	100 nM hIL-36R-MMH Bound (RU)	koff	t1/2
B1	85 RU	0.0039 s⁻¹	3 min
B2	17 RU	0.00169 s⁻¹	7 min
B3	109 RU	0.0026 s⁻¹	4 min
B4	120 RU	0.00339 s⁻¹	3 min

Biological target: T3, human IL-36R extracellular domain …
Test: SPR Biacore T200, mAb captured on anti-hFc, 37C, PBS-T pH 7.4 running buffer
Procedure: as §2

Binder	100 nM hIL-36R-MMH Bound (RU)	koff	t1/2
B1	94 RU	0.00187 s⁻¹	6 min
B2	20 RU	0.00121 s⁻¹	10 min
B3	113 RU	0.00129 s⁻¹	9 min
B4	126 RU	0.00226 s⁻¹	5 min

— patent US20200017592A1 (Regeneron, published 2020)
